Consider 2 molecules from paper PMC11306251, “An integrative structural study of the human full-length RAD52 at 2.2 Å resolution” (Communications Biology, 2024).

For one data set, the target named is T1, FL-RAD52 (Homo sapiens, UniProt P43351 1-418).
T1 sequence: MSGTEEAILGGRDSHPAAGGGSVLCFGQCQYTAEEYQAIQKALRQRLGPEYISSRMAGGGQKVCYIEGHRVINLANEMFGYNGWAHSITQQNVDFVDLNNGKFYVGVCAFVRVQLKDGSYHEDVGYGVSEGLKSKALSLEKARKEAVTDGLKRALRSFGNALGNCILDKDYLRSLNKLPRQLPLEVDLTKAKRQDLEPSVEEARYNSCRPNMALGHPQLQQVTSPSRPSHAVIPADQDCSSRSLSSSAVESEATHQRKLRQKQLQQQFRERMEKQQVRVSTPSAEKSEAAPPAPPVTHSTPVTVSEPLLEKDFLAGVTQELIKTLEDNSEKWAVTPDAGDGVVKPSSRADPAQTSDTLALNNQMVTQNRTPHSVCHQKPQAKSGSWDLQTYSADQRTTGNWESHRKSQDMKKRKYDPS
Put plainly: fluorescence polarization; apparent Kd; 10 nM DNA; FP: 25 mM Tris-HCl pH 7.5, 62.5 mM NaCl, 5% glycerol, 1 mM DTT, room temperature, 15 min. The note with it: protein: recombinant; tags: His-tag (pET15b); label: 5'-6-FAM; single strand. (In general: In fluorescence polarisation assays a small probe gives low polarisation when free and higher when bound to something large.)

Data set [1] deals with the molecule itself. Put plainly: MST; apparent; RED-NHS labelled FL-RAD52 constant at 10 nM, unlabelled FL-RAD52 0.7 nM-25 μM; 25 °C; 25 mM Hepes pH 7.5, 5% glycerol, 250 mM NaCl, 0.05% Tween 20; step of self-association not stated.

Consider TTTTTTTTTTTTTTTTTTTTTTTTTTTTTT (ssDNA) [dT30 ssDNA], for which the Kd with FL-RAD52 came out at 0.0372 ± 0.0004 µM.

B1: Human full-length RAD52 (FL-RAD52), 6xHis-tagged (natural protein, UniProt P43351 1-418, looked up)
chain: MSGTEEAILGGRDSHPAAGGGSVLCFGQCQYTAEEYQAIQKALRQRLGPEYISSRMAGGGQKVCYIEGHRVINLANEMFGYNGWAHSITQQNVDFVDLNNGKFYVGVCAFVRVQLKDGSYHEDVGYGVSEGLKSKALSLEKARKEAVTDGLKRALRSFGNALGNCILDKDYLRSLNKLPRQLPLEVDLTKAKRQDLEPSVEEARYNSCRPNMALGHPQLQQVTSPSRPSHAVIPADQDCSSRSLSSSAVESEATHQRKLRQKQLQQQFRERMEKQQVRVSTPSAEKSEAAPPAPPVTHSTPVTVSEPLLEKDFLAGVTQELIKTLEDNSEKWAVTPDAGDGVVKPSSRADPAQTSDTLALNNQMVTQNRTPHSVCHQKPQAKSGSWDLQTYSADQRTTGNWESHRKSQDMKKRKYDPS
notes: Human RAD52, full length, 418 amino acids (47 kDa); expression vector pET15b (Addgene, number not given); In the MST experiment the copy held at constant concentration was labelled with RED-NHS (amine dye NT-647-NHS); No tag cleavage is described; the SAXS deposit is named 'His-Tagged full-length'; also called DNA repair protein RAD52 homolog; source: E. coli BL21 (DE3) Rosetta pLysS, purified …
On to B1, for which the Kd in data set [1] was 13 µM.
